* marks the point of attachment. BODIPYFLEthylmaleimide = Cc1cc(C)n2c1C=C1C=CC(CCC(=O)NCCN3C(=O)CC(*)C3=O)=[N+]1[B-]2(F)F
What was measured:
[1] = biological target: the molecule itself; assay: gel filtration (Superdex 75), self-association
Method: The oligomeric states of peptides were determined by filtration as described in Traincard et al., 2003. In brief, 500 μl samples were loaded on a SUPERDEX™ 75 HR 10/30 column equilibrated in 50 mM Tris-HCl pH 8.0 containing 200 mM NaCl and 0.1 mM DDM, at a constant flow rate of 0.4 ml/min. The presence of the DDM detergent was added in the equilibrium buffer to minimize the adsorption in the column and to increase the peptide recovery. The column was calibrated in the same equilibrium buffer with blue dextran 2000 (void volume), dithioerythritol (total volume), bovine serum albumin (67 kDa, Rs=35.2 Å), ovalbumine (43 kDa, Rs=27.5 Å), chymotrypsinogen A (25 kDa, Rs=21.1 Å), ribonuclease A (13.7 kDa, Rs=16.4 Å), cytochrome C (12.4 kDa, Rs=17.7 Å) and aprotinin (6.5 KDa, Rs=13.5 Å).

[2] = biological target: T1, NEMO (NF-kB essential modulator), murine (murine, UniProt O88522 1-412); assay: cell-based or functional assay
T1 sequence (O88522 other isoform, or with tags, fused parts or gaps): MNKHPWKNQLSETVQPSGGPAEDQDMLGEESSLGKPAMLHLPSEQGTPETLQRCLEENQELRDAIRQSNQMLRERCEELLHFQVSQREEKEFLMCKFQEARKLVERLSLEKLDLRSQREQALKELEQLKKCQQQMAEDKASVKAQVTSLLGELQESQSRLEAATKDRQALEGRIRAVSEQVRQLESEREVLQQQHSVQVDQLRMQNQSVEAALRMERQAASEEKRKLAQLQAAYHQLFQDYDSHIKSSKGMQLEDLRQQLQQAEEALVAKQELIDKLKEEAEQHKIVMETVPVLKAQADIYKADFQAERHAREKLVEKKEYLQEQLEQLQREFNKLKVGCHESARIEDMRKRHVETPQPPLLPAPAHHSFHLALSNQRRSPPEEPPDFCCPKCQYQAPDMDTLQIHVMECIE

[3] = biological target: T1, NEMO (NF-kB essential modulator), murine; assay: cell-based or functional assay; remark: listed apart in the source

Row | Binder | binding result [1] | IC 50 (inhibition of NF-κB activation pathway) [2] [nM] | other results
1 | BODIPY-Ant-CC2 (Mu) (also called CC2 variant) peptide: Ac-C(BODIPYFLEthylmaleimide)RQIKIWFQNRRMKWKKSKGMQLEDLRQQGQQAEEAGVAKQELGDKLKEEAEQHKIV-NH2 | no binding (tested: 10 µM) | – | –
2 | Ac-C(BODIPYFLEthylmaleimide)RRRRRRRRRLKAQADIYKARFQAERHAREK-NH2 (SMILES CC[C@H](C)[C@H](NC(=O)[C@H](CC(=O)O)NC(=O)[C@H](C)NC(=O)[C@H](CCC(N)=O)NC(=O)[C@H](C)NC(=O)[C@H](CCCCN)NC(=O)[C@H](CC(C)C)NC(=O)[C@H](CCCNC(=N)N)NC(=O)[C@H](CCCNC(=N)N)NC(=O)[C@H](CCCNC(=N)N)NC(=O)[C@H](CCCNC(=N)N)NC(=O)[C@H](CCCNC(=N)N)NC(=O)[C@H](CCCNC(=N)N)NC(=O)[C@H](CCCNC(=N)N)NC(=O)[C@H](CCCNC(=N)N)NC(=O)[C@H](CCCNC(=N)N)NC(=O)[C@H](CSC1CC(=O)N(CCNC(=O)CCC2=[N+]3C(=Cc4c(C)cc(C)n4[B-]3(F)F)C=C2)C1=O)NC(C)=O)C(=O)N[C@@H](Cc1ccc(O)cc1)C(=O)N[C@@H](CCCCN)C(=O)N[C@@H](C)C(=O)N[C@@H](CCCNC(=N)N)C(=O)N[C@@H](Cc1ccccc1)C(=O)N[C@@H](CCC(N)=O)C(=O)N[C@@H](C)C(=O)N[C@@H](CCC(=O)O)C(=O)N[C@@H](CCCNC(=N)N)C(=O)N[C@@H](Cc1c[nH]cn1)C(=O)N[C@@H](C)C(=O)N[C@@H](CCCNC(=N)N)C(=O)N[C@@H](CCC(=O)O)C(=O)N[C@@H](CCCCN)C(N)=O) [BODIPY-R9-NLM-DR] | – | 900 | –
3 | BODIPY-Ant-LZ (WT) (Synthetic peptide; elutes as a monomer in gel filtration at 10 uM) peptide: Ac-C(BODIPYFLEthylmaleimide)RQIKIWFQNRRMKWKKLKAQADIYKADFQAERHAREKLVEKKEYLQEQLEQLQREFNKL-NH2 | no binding (tested: 10 µM) | – | IC50 of inhibition of LPS-induced NF-κB activation (β-galactosidase reporter, 70Z3-C3 cells) [3]: 3000 nM; fold reduction of LPS-induced NF-κB activation at 10 µM peptide (stringent β-galactosidase assay, 70Z3-C3 cells) [3]: 5.8 fold
4 | Ac-SKGMQLEDLRQQGQQAEEAGVAKQELGDKLKEEAEQHKIV-NH2 (As for CC2 (WT), the printed theoretical mass (3987.43 Da) fits residues 6-40 only; also called CC2 mutant) [CC2 (Mu)] | no binding (tested: 10 µM) | – | –
5 | Ac-C(BODIPYFLEthylmaleimide)YGRKKRRQRRRLKAQADIYKARFQAERHAREK-NH2 (SMILES CC[C@H](C)[C@H](NC(=O)[C@H](CC(=O)O)NC(=O)[C@H](C)NC(=O)[C@H](CCC(N)=O)NC(=O)[C@H](C)NC(=O)[C@H](CCCCN)NC(=O)[C@H](CC(C)C)NC(=O)[C@H](CCCNC(=N)N)NC(=O)[C@H](CCCNC(=N)N)NC(=O)[C@H](CCCNC(=N)N)NC(=O)[C@H](CCC(N)=O)NC(=O)[C@H](CCCNC(=N)N)NC(=O)[C@H](CCCNC(=N)N)NC(=O)[C@H](CCCCN)NC(=O)[C@H](CCCCN)NC(=O)[C@H](CCCNC(=N)N)NC(=O)CNC(=O)[C@H](Cc1ccc(O)cc1)NC(=O)[C@H](CSC1CC(=O)N(CCNC(=O)CCC2=[N+]3C(=Cc4c(C)cc(C)n4[B-]3(F)F)C=C2)C1=O)NC(C)=O)C(=O)N[C@@H](Cc1ccc(O)cc1)C(=O)N[C@@H](CCCCN)C(=O)N[C@@H](C)C(=O)N[C@@H](CCCNC(=N)N)C(=O)N[C@@H](Cc1ccccc1)C(=O)N[C@@H](CCC(N)=O)C(=O)N[C@@H](C)C(=O)N[C@@H](CCC(=O)O)C(=O)N[C@@H](CCCNC(=N)N)C(=O)N[C@@H](Cc1c[nH]cn1)C(=O)N[C@@H](C)C(=O)N[C@@H](CCCNC(=N)N)C(=O)N[C@@H](CCC(=O)O)C(=O)N[C@@H](CCCCN)C(N)=O) [BODIPY-TAT-NLM-DR] | – | 1000 | –
6 | Ac-C(BODIPYFLEthylmaleimide)RRRRRRRLKAQADIYKARFQAERHAREK-NH2 (SMILES CC[C@H](C)[C@H](NC(=O)[C@H](CC(=O)O)NC(=O)[C@H](C)NC(=O)[C@H](CCC(N)=O)NC(=O)[C@H](C)NC(=O)[C@H](CCCCN)NC(=O)[C@H](CC(C)C)NC(=O)[C@H](CCCNC(=N)N)NC(=O)[C@H](CCCNC(=N)N)NC(=O)[C@H](CCCNC(=N)N)NC(=O)[C@H](CCCNC(=N)N)NC(=O)[C@H](CCCNC(=N)N)NC(=O)[C@H](CCCNC(=N)N)NC(=O)[C@H](CCCNC(=N)N)NC(=O)[C@H](CSC1CC(=O)N(CCNC(=O)CCC2=[N+]3C(=Cc4c(C)cc(C)n4[B-]3(F)F)C=C2)C1=O)NC(C)=O)C(=O)N[C@@H](Cc1ccc(O)cc1)C(=O)N[C@@H](CCCCN)C(=O)N[C@@H](C)C(=O)N[C@@H](CCCNC(=N)N)C(=O)N[C@@H](Cc1ccccc1)C(=O)N[C@@H](CCC(N)=O)C(=O)N[C@@H](C)C(=O)N[C@@H](CCC(=O)O)C(=O)N[C@@H](CCCNC(=N)N)C(=O)N[C@@H](Cc1c[nH]cn1)C(=O)N[C@@H](C)C(=O)N[C@@H](CCCNC(=N)N)C(=O)N[C@@H](CCC(=O)O)C(=O)N[C@@H](CCCCN)C(N)=O) [BODIPY-R7-NLM-DR] | – | 900 | –
7 | Ac-C(BODIPYFLEthylmaleimide)RQIKIWFQNRRMKWKKLKAQADIYKARFQAERHAREK-NH2 (SMILES CC[C@H](C)[C@H](NC(=O)[C@H](CC(=O)O)NC(=O)[C@H](C)NC(=O)[C@H](CCC(N)=O)NC(=O)[C@H](C)NC(=O)[C@H](CCCCN)NC(=O)[C@H](CC(C)C)NC(=O)[C@H](CCCCN)NC(=O)[C@H](CCCCN)NC(=O)[C@H](Cc1c[nH]c2ccccc12)NC(=O)[C@H](CCCCN)NC(=O)[C@H](CCSC)NC(=O)[C@H](CCCNC(=N)N)NC(=O)[C@H](CCCNC(=N)N)NC(=O)[C@H](CC(N)=O)NC(=O)[C@H](CCC(N)=O)NC(=O)[C@H](Cc1ccccc1)NC(=O)[C@H](Cc1c[nH]c2ccccc12)NC(=O)[C@@H](NC(=O)[C@H](CCCCN)NC(=O)[C@@H](NC(=O)[C@H](CCC(N)=O)NC(=O)[C@H](CCCNC(=N)N)NC(=O)[C@H](CSC1CC(=O)N(CCNC(=O)CCC2=[N+]3C(=Cc4c(C)cc(C)n4[B-]3(F)F)C=C2)C1=O)NC(C)=O)[C@@H](C)CC)[C@@H](C)CC)C(=O)N[C@@H](Cc1ccc(O)cc1)C(=O)N[C@@H](CCCCN)C(=O)N[C@@H](C)C(=O)N[C@@H](CCCNC(=N)N)C(=O)N[C@@H](Cc1ccccc1)C(=O)N[C@@H](CCC(N)=O)C(=O)N[C@@H](C)C(=O)N[C@@H](CCC(=O)O)C(=O)N[C@@H](CCCNC(=N)N)C(=O)N[C@@H](Cc1c[nH]cn1)C(=O)N[C@@H](C)C(=O)N[C@@H](CCCNC(=N)N)C(=O)N[C@@H](CCC(=O)O)C(=O)N[C@@H](CCCCN)C(N)=O) [BODIPY-Ant-NLM-DR] | – | 1100 | –
8 | BODIPY-Ant-LZ (Mu) (Two L to S mutations at d positions; also called BODIPY-Ant LZ mutant) peptide: Ac-C(BODIPYFLEthylmaleimide)RQIKIWFQNRRMKWKKLKAQADIYKADFQAERHAREKLVEKKEYSQEQLEQSQREFNKL-NH2 | no binding (tested: 10 µM) | – | –

Reference: patent US20080207517A1 (INSTITUT PASTEUR, published 2008)
